Target: human apo-Calmodulin (cryo-EM complex) (human, UniProt P0DP23)
Assay: cryo-EM structure

B1: full-length SidJ (cryo-EM complex) (enzyme)
chain: MFGFIKKVLDFFGVDQSEDNPSETAVETTDVSTKIKTTDTTQEESSVKTKTVVPTQPGGSVKPETIAPDQQKKHQIKTETTTSTTKQKGPKVTLMDGHVKQYYFARRGETSTHDTSLPPPVKVLSGRSIPLKEIPFEATRNELVQIYLTSIDKLIKSNKLNSIPSQQIASHYLFLRSLANSETDGIKKNQILSLAKPLGTYLASKEPHVWKMINELIEKSEYPIIHYLKNNRAHSNFMLALIHEYHKEPLTKNQSAFVQKFRDSSVFLFPNPIYTAWLAHSYDEDSSFNPMFRERLSTNFYHSTLTDNLLLRTEPKEVTLSSEHHYKKEKGPIDSSFRYQMSSDRLLRIQGRTLLFSTPQNDVVAVKVQKKGEPKSTLEEEFEMADYLLKHQRRLDVHSKLPQPLGQYSVKKSEILEISRGSLDFERFKTLIDDSKDLEVYVYKAPQSYFTYLHDKNQDLEDLTASVKTNVHDLFVLLREGIVFPQLADIFHTHFGEDEREDKGRYQALVQLLNVLQFQLGRIDKWQKAVEYVNLRSSGLADLGDSLPITSLFTSSDFTKHYFSELLTGGYHPTFFDKSSGTANSLFTGKRRLFGNYLYLNTIAEYLLVIQLTLGSYGDKVTRDMMDKPKKEAVWRELANVMFTSCAEAIHIMTGIPQSRALTLLKQRANIEKHFRQTQFWMTPDYSKLDEDTLQMEQYSIYSGEPEYEFTDKLVSGVGLSVDGVHQDLGGYNRESPLRELEKLLYATVTLIEGTMQLDKEFFKQLEQVEKILSGEIKTDANSCFEAVAQLLDLARPGCHFQKRLVLSYYEEAKLKYPSAPTDAYDSRFQVVARTNAAITIQRFWREARKNLSEKSDIDSEKPESERTTDKRL
B1: binds.

Reference: article PMC6715450 (Nature, 2019)
